Assay results: paper PMC5954133, “Functional Characterization of a Small Alarmone Hydrolase in Corynebacterium glutamicum” (Frontiers in Microbiology, 2018)

What was measured:
Assay in all cases: HPLC-UV pyrophosphohydrolase assay, Eadie-Hofstee
Type in all cases: biochemical, Corynebacterium glutamicum
[1] = substrate: Nc1nc2c(ncn2[C@@H]2O[C@H](COP(=O)(O)OP(=O)(O)OP(=O)(O)O)[C@@H](OP(=O)(O)OP(=O)(O)O)[C@H]2O)c(=O)[nH]1; conditions: 1 mM MnCl2, 50 mM HEPES-Na pH 8.0, 200 mM NaCl, 30°C, substrate inhibition, approximate fit from lowest concentrations
From the text: (§1) HPLC-UV pyrophosphohydrolase assay, Eadie-Hofstee on […]

[2] = substrate: Nc1nc2c(ncn2[C@@H]2O[C@H](COP(=O)(O)OP(=O)(O)O)[C@@H](OP(=O)(O)OP(=O)(O)O)[C@H]2O)c(=O)[nH]1; conditions: 1 mM MnCl2, 50 mM HEPES-Na pH 8.0, 200 mM NaCl, 30°C, substrate inhibition, approximate fit from lowest concentrations
From the text: as §1

[3] = substrate: Nc1nc2c(ncn2[C@@H]2O[C@H](COP(=O)(O)O)[C@@H](OP(=O)(O)OP(=O)(O)O)[C@H]2O)c(=O)[nH]1; conditions: 1 mM MnCl2, 50 mM HEPES-Na pH 8.0, 200 mM NaCl, 30°C, substrate inhibition, approximate fit from lowest concentrations, only two data points, no error analysis
From the text: as §1

[4] = substrate: Nc1nc2c(ncn2[C@@H]2O[C@H](COP(=O)(O)OP(=O)(O)OP(=O)(O)O)[C@@H](OP(=O)(O)OP(=O)(O)O)[C@H]2O)c(=O)[nH]1; conditions: 1 mM MnCl2, 50 mM HEPES-Na pH 8.0, 200 mM NaCl, 30°C, substrate inhibition, approximate fit from lowest concentrations, only two data points, no error analysis
From the text: (§2) HPLC-UV pyrophosphohydrolase assay, Eadie-Hofstee on RelCg

[5] = substrate: Nc1nc2c(ncn2[C@@H]2O[C@H](COP(=O)(O)OP(=O)(O)O)[C@@H](OP(=O)(O)OP(=O)(O)O)[C@H]2O)c(=O)[nH]1; conditions: 1 mM MnCl2, 50 mM HEPES-Na pH 8.0, 200 mM NaCl, 30°C, substrate inhibition, approximate fit from lowest concentrations; remark: listed apart in the source
From the text: as §2

[6] = substrate: Nc1nc2c(ncn2[C@@H]2O[C@H](COP(=O)(O)O)[C@@H](OP(=O)(O)OP(=O)(O)O)[C@H]2O)c(=O)[nH]1; conditions: 1 mM MnCl2, 50 mM HEPES-Na pH 8.0, 200 mM NaCl, 30°C, substrate inhibition, approximate fit from lowest concentrations
From the text: as §2

| Protein | Km [1] | kcat [1] | kcat/Km [1] | Km [2] | kcat [2] | kcat/Km [2] | Km [3] | kcat [3] | kcat/Km [3] | Km [4] | kcat [4] | kcat/Km [4] | Km [5] | kcat [5] | kcat/Km [5] | Km [6] | kcat [6] | kcat/Km [6] |
| --- | --- | --- | --- | --- | --- | --- | --- | --- | --- | --- | --- | --- | --- | --- | --- | --- | --- | --- |
| RelHCg (Corynebacterium glutamicum ATCC 13032) (protein, full-length; expressed in E. coli ER2566) MNTLSPRLRKAMNTAAWAHRHHVRKGGGIPYVSHLYSVMYLLASVTNDEDVLIAGLLHDTLEDVPEEYNSAQLEADFGPRVRELVEELTKQPLKSWKARADAYLLHLSAGASLEAVLISTADKLHNLMSILDDLEIHGEDLWQRFNAGKEQQIWWYSEVYQISLQRLGFNELNKQLGLCVEKLLKQSA | 90 ± 11 µM | 0.09 ± 0.003 s⁻¹ | 1010 M⁻¹ s⁻¹ | 101 ± 7 µM | 0.502 ± 0.018 s⁻¹ | 4970 M⁻¹ s⁻¹ | 144 µM | 0.294 s⁻¹ | 2040 M⁻¹ s⁻¹ | – | – | – | – | – | – | – | – | – |
| RelCg (Corynebacterium glutamicum ATCC 13032) (protein, full-length bifunctional RSH; expressed in E. coli ER2566) MSLERNTQKSSMGVRSMSARLARSLTGNRVRTNPVLDPLLSIHRQFHPRADVQVLERAYDTAERLHDGVIRKSGDPYITHPLAVATIAAEIGMDTTTLVAALLHDTVEDTDYSLDDLTRDFGEEVARLVDGVTKLDKVALGAAAEAETIRKMIVAMSQDPRVLVIKVADRLHNMRTMRFLPPEKQAKKARQTLEVIAPLAHRLGMASVKWELEDLSFAILYPKKYEEIVRLVADRAPSRDRYLKEIIDQVTGGLRENNIAAEVLGRPKHYWSIYQKMIVRGRDFDDIFDLVGIRILVDNVNNCYAAIGVVHSLFNALPGRFKDYISAPRFGVYQSLHTTVMGPGGKPLEVQARTHDMHYNAEFGIAAHWRYKETKGSHSGEQAEVDQMAWMRQLLDWQKEAADPNEFLDSLRYDLTSKQIFVFTPKGDVVNLPVNSTPVDFAYAVHTEVGHRCIGAKINGKLVALETKLKSGDRVEVFTSKDQNAGPSRGWQEFVVSPRAKAKIRQWFAKERREEYLEAGRDALAAVIQRGGLPMHRLFTASSMKTVATELHYPDVDALYTAIGSGSVSAQHVVNRLMAIFGDEEDAEDALVARTPFSELVNSRATTESSTGILVEGSPDVMAKLAKCCMPVPGDEIFGFVTRGGGVSVHRTDCTNVEKLKEEPERIVSVSWASEGQGSVFSATLQLEALDRAGLLFELTRVINEQKVSVTAMNSHCSEDRVATVRFTFAVSDTKQLGSLMTQLRNAEGVFDVYRVTSGG | – | – | – | – | – | – | – | – | – | 422 µM | 0.563 s⁻¹ | 1340 M⁻¹ s⁻¹ | 511 ± 10 µM | 0.296 ± 0.004 s⁻¹ | 579 M⁻¹ s⁻¹ | 734 ± 127 µM | 0.794 ± 0.071 s⁻¹ | 1080 M⁻¹ s⁻¹ |
